In paper PMC2596486:

Tests used:
[1] = target: rHA subtype H1 (A/New Caledonia/20/99) (influenza A virus A/New Caledonia/20/99 (H1)) (UniProt Q6WG00); assay: SPR
[2] = target: rHA subtype H1 (A/New Caledonia/20/99) (Influenza A virus A/New Caledonia/20/1999 (H1N1)) (UniProt Q6WG00); assay: SPR

| Substance | Kd [1] [nM] | koff [1] [s⁻¹] | kon [1] [M⁻¹ s⁻¹] | Kd [2] [nM] | koff [2] [s⁻¹] | kon [2] [M⁻¹ s⁻¹] |
| --- | --- | --- | --- | --- | --- | --- |
| CR6261 Fab | 3.8 | 0.0037 | 980000 | – | – | – |
| CR6323 Fab | – | – | – | 3.9 | 0.00054 | 140000 |
